# Molecular target: clathrin heavy chain (Sus scrofa)
# Assay: cryo-EM structure
substance,measurement,value
clathrin heavy chain (natural protein),stoichiometry N,3
